Tests used:
[1] = test system: activator protein (ACT) from Bacillus methanolicus PB1
[2] = molecular target: methanol dehydrogenase MDH2 from Bacillus methanolicus PB1 (Bacillus methanolicus PB1); assay: cell-based or functional assay

Substance	Km for methanol of MDH2 with ACT, crude lysates [1]	specific activity of MDH2 with ACT, crude lysates [2] [µmol/min/mg]
methanol dehydrogenase MDH2 from Bacillus methanolicus PB1	a Km of 119 mM	–
activator protein (ACT) from Bacillus methanolicus PB1	–	0.009
